The target in this assay is SARS-CoV-2 3CL^pro enzyme (Recombinant derived from Escherichia coli, ab277614, ABCAM; SEQ ID NO:2) (SARS-CoV-2) (UniProt P0DTC1).

Take “3CL^pro specific antibody (Rabbit-derived, NBP3-07062, Novus Biologicals; binding to SEQ ID NO:3)”: the time to maximal binding was 20 s.

The values above are taken from patent publication US20240361320A1.
